Among the data in paper doi:10.1101/2021.12.16.472884 are stoichiometry N values, retold here.

What all share (assay): SEC
(In general: In gel filtration, larger molecules generally elute earlier.)

Assay [1] concerns the target His6 tagged recombinant pNL4-3-derived IN R269A/K273A/D256R (HIV-1 (NL4-3)).
The target of assay [2] is His6 tagged recombinant pNL4-3-derived IN R269A/K273A/D256N/D270N (HIV-1 (NL4-3)).
In assay [3] the target is His6 tagged recombinant pNL4-3-derived IN R262A/R263A/D256N/D270N (HIV-1 (NL4-3)).
Assay [4] has as its target His6 tagged recombinant pNL4-3-derived IN R262A/R263A/D256R (HIV-1 (NL4-3)).

The term stoichiometry N denotes a count of units in the complex or per binding partner. For the substance “His6 tagged recombinant pNL4-3-derived IN R269A/K273A/D256R (enzyme)”, the stoichiometry N in assay [1] stood at 4. As to “His6 tagged recombinant pNL4-3-derived IN R269A/K273A/D256N/D270N (enzyme)”, the stoichiometry N in assay [2] is 4. In the case of “His6 tagged recombinant pNL4-3-derived IN R262A/R263A/D256N/D270N (enzyme)”, the stoichiometry N in assay [3] amounted to 4. Take “His6 tagged recombinant pNL4-3-derived IN R262A/R263A/D256R (enzyme)”: the stoichiometry N in assay [4] came out at 4.
